Tests used:
[1] = biological target: Chimera: Huma USP25 (157-[AIM of D. rerio USP28]-714) (human | zebrafish (Danio rerio)); assay: SEC-MALS; 100 μL of 1-2 mg/mL protein on Superdex 200 10/300, 0.5 mL/min, PBS + 2 mM DTT
[2] = biological target: Chimera: Human USP25 (157-[Insert of Human USP28]-714) (human); assay: as above
[3] = biological target: Chimera: Human USP28 (149-[Insert of Human USP25]-703) (human); assay: as above
[4] = biological target: D. rerio USP28 (1-738,763-1187) (zebrafish (Danio rerio)); assay: not stated; oligomeric states of purified orthologs and of full-length proteins, Figures S7A, S7B and S3J
[5] = biological target: D. rerio USP28 (138-684) (zebrafish (Danio rerio)); assay: as above
[6] = biological target: G. gallus USP25 (174-726) (chicken (Gallus gallus)); assay: as above
[7] = biological target: G. gallus USP25 (174-726)∼Ub-PA (chicken (Gallus gallus) | not stated); assay: as above

Substance: Chimera: Huma USP25 (157-[AIM of D. rerio USP28]-714) (domain or fragment)
- stoichiometry N [1]: 2

Substance: Chimera: Human USP25 (157-[Insert of Human USP28]-714) (domain or fragment)
- stoichiometry N [2]: 2

Substance: Chimera: Human USP28 (149-[Insert of Human USP25]-703) (domain or fragment)
- stoichiometry N [3]: 2

Substance: D. rerio USP28 (1-738,763-1187) (enzyme)
- stoichiometry N [4]: 2

Substance: D. rerio USP28 (138-684) (domain or fragment)
- stoichiometry N [5]: 2

Substance: G. gallus USP25 (174-726) (domain or fragment)
- stoichiometry N [6]: 4

Substance: G. gallus USP25 (174-726)∼Ub-PA (from UniProt P0CG48 1-75) (complex)
- stoichiometry N [7]: 2

Source: publication PMC6509359
